Measured values: article PMC11272584 (Nature Metabolism, 2024)
Where a chain is given by its changes, count along the chain named.

What was measured:
GIPR P195R (human) = molecular target: T1, GIPR P195R (human) (UniProt P48546)
T1 sequence: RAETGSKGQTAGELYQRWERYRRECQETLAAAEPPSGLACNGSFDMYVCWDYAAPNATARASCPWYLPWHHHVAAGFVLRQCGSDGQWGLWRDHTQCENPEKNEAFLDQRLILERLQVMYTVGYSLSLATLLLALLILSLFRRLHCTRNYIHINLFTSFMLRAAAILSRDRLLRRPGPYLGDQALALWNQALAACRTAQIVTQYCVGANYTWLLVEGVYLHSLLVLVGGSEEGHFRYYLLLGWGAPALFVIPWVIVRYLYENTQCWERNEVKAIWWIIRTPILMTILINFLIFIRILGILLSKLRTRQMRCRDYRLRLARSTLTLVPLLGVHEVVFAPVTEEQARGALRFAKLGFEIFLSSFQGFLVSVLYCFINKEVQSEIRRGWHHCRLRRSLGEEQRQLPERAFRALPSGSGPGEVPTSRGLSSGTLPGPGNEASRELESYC

GIPR Y73H (human) = molecular target: T2, GIPR Y73H (human) (UniProt P48546)
T2 sequence: T1 sequence with Y52H, R174P

GIPR R336P (human) = molecular target: T3, GIPR R336P (human) (UniProt P48546)
T3 sequence: T1 sequence with R174P, R315P

GIPR K397N (human) = molecular target: T4, GIPR K397N (human) (UniProt P48546)
T4 sequence: T1 sequence with R174P, K376N

GIPR A207V (human) = molecular target: T5, GIPR A207V (human) (UniProt P48546)
T5 sequence: T1 sequence with R174P, A186V

GIPR S382T (human) = molecular target: T6, GIPR S382T (human) (UniProt P48546)
T6 sequence: T1 sequence with R174P, S361T

**Q.** How did the β-arrestin 2 recruitment (BRET) on stimulation with GIP(1-42): logEC50 (Arrestin) (log M (inferred)) (GIPR P195R (human)) turn out when “β-arrestin 2 (Rluc8-Arrestin-3-Sp1) (from UniProt P32121 1-409) (natural protein)” was run?
**A.** -9.04

**Q.** And the β-arrestin 2 recruitment (BRET) on stimulation with GIP(1-42): logEC50 (Arrestin) (log M (inferred)) (GIPR Y73H (human))?
**A.** -9.11

**Q.** And the β-arrestin 2 recruitment (BRET) on stimulation with GIP(1-42): logEC50 (Arrestin) (log M (inferred)) (GIPR R336P (human))?
**A.** -8.82

**Q.** And the β-arrestin 2 recruitment (BRET) on stimulation with GIP(1-42): logEC50 (Arrestin) (log M (inferred)) (GIPR K397N (human))?
**A.** -8.9

**Q.** And the β-arrestin 2 recruitment (BRET) on stimulation with GIP(1-42): logEC50 (Arrestin) (log M (inferred)) (GIPR A207V (human))?
**A.** -9.42

**Q.** And the β-arrestin 2 recruitment (BRET) on stimulation with GIP(1-42): logEC50 (Arrestin) (log M (inferred)) (GIPR S382T (human))?
**A.** -9.39
